Data reported in US20230122991A1, “GROWTH FACTOR FORMULATION FOR CONDITION ASSOCIATED WITH OTIC EVENT” (OTONOMY, INC., priority 2020, published 2023).

Experiments:
Type in all cases: in vivo, rat
[1] = test system: adult rats following noise damage; assay: Noise-induced cochlear synaptopathy, IHC synaptic puncta counts (Example G); conditions: each frequency region throughout the cochlea; BDNF in P407 after noise; Day 28; FIG. 13C
Method: Animals: Male Sprague-Dawley rats (5-6 months of age) were used for efficacy studies and females (2-3 months) were used for pharmacokinetic studies.
Formulations: Human recombinant BDNF was suspended in the thermoreversible polymer Poloxamer 407 (16%) to reach a range of BDNF concentrations.
Intratympanic (IT) injection: Formulations were administered under anesthesia as a single IT injection (20 μl) through the tympanic membrane into the middle ear, targeting the round window membrane (RWM).
Noise-induced cochlear synaptopathy: Rats (n=44 per treatment group) received a single acoustic trauma (105 dB SPL, 8-16 kHz, 1 h) under anesthesia. 24 hours later (Day 1) animals received a single bilateral IT injection of the treatment regimens. Auditory function (ABR and ABR wave 1 amplitude) was monitored at day 1 and then every 7 days for 28 days. At termination (Day 28), cochleae were collected and assessed for evidence of cochlear synaptopathy (IHC synaptic puncta counts).
Immunohistochemistry: Dissected cochleae were immunostained with antibodies against presynaptic (CtBP2) and postsynaptic (GluR2) proteins and MyosinVIIa to label hair cells. Cochleae were then frequency mapped and high-magnification images were obtained with a Zeiss LSM-880 confocal microscope and imaged at an interval of 0.35 μm.
Intratympanic BDNF repairs cochlear synaptopathy in adult rats. […]

noise exposed adult rats [2] = assay: Noise-induced hearing loss/synaptopathy, synaptic analysis of inner hair cells (Example A1); conditions: sustained release formulation, 0.005% BDNF in Poloxamer 407, single unilateral intratympanic administration 24 hrs after noise; Day 28; compared to vehicle treatment; FIG. 3B
Method: (§1) Male rats (Charles River) approximately 10-11 months of age served as subjects (N=6 per group). Prior to any procedures, animals were anesthetized using a combination of xylazine (10 mg/kg) and ketamine (90 mg/kg) for up to one hour via the intraperitoneal route. If needed, an intraoperative booster was administered intraperitoneally representing one-tenth of the original dose.
Noise exposure—Anesthetized animals (4 at a time) were placed in an enclosure and exposed to noise. The characteristics of the acoustic trauma were as follows: a single period of 1 h, sound pressure level of 105 dB SPL with a narrow band pass of 8-16 kHz. Noise was delivered using a Grason Stadler white noise generator, filtered through a Krohn Hite 3750 unit, amplified using a Crown D75 unit, and conveyed via a JBL speaker (model 2446H). Following treatment, the animals were returned to the vivarium. Noise exposure was calibrated over a range of 80-115 dB SPL across a wide range of frequencies using the Acoustical Interface Precision Microphone System and the Tucker Davis Technologies system. […]
Synaptic Analysis—Flat-mounted cochlear pieces from each ear were imaged at low magnification (10×) and the total length of the imaged tissue was measured and the frequency domains (4, 10, 20 and 40 kHz) were mapped onto the images. […]

noise exposed adult rats [3] = assay: Noise-induced hearing loss/synaptopathy, ABR wave I amplitude (Example A1); conditions: sustained release formulation, 0.005% BDNF in Poloxamer 407, single unilateral intratympanic administration 24 hrs after noise; compared to vehicle treatment; FIG. 3A
Method: as §1
Noise exposure—Anesthetized animals (4 at a time) were placed in an enclosure and exposed to noise. The characteristics of the acoustic trauma were as follows: a single period of 1 h, sound pressure level of 105 dB SPL with a narrow band pass of 8-16 kHz. […]
Auditory Brainstem Response (ABR) assessment (wave 1)—During the procedure, additional anesthetic (xylazine and ketamine) was administered if needed to maintain the depth of anesthesia sufficient to insure immobilization and relaxation. ABRs were recorded in an electrically and acoustically shielded chamber, one ear at a time. […] Acoustic calibration was performed with TDT software (SigCal) and thresholds were expressed as dB SPL in conditions identical to that of threshold recordings in animals. […] Wave 1 was quantified by averaging the wave 1 amplitude from intensities ranging between 60-80 dB SPL.
Animals were exposed to noise on Day 0. […] ABR threshold and ABR wave I amplitude were measured weekly in live animals for up to 4 weeks. […]

B1: brain-derived neurotrophic factor (protein, UniProt P23560 129-247, looked up)
Neurotrophic factor BDNF: HSDPARRGELSVCDSISEWVTAADKKTAVDMSGGTVTVLEKVPVSKGQLKQYFYETKCNPMGYTKEGCRGIDKRHWNSQCRTTQSYVRALTMDSKKRIGWRFIRIDTSCVCTLTIKRGR
modifications: Neurotrophic factor BDNF in 16% poloxamer 407 gel
notes: Human recombinant BDNF
- synaptic puncta (co-expression of CtBp2 and GluR2) per inner hair cell [1]: increased
- number of ribbon synapses per inner hair cell (noise exposed adult rats [2]): increased
- hearing function (wave I amplitude) (noise exposed adult rats [3]): improved
